{
  "source": "paper PMC8985661",
  "key": {"[1]": {"molecular_target": "microtubules (MTs; α-tubulin/β-tubulin) (UniProt P02554)", "assay": "other fluorescence titration; fluorescently labeled MAP7 on MTs at different concentrations, fluorescence intensity fit to the Hill equation; 150 mM KAc"}, "[2]": {"molecular_target": "microtubules (MTs; α-tubulin/β-tubulin) (UniProt P02554)"}},
  "note": "pKd: −log10 of the molar value.",
  "data": [
    {"substance": "full-length (FL) MAP7 (from UniProt Q14244 1-749) (natural protein)", "values": [
      {"measurement": "pKd", "setting": "[1]", "result": 6.95},
      {"measurement": "half-max inhibition constant of the run frequency of dynein-dynactin-BicDR1 (DDR) on MTs against MAP7 concentration (blocks dynein on MTs); 150 mM KAc", "setting": "[2]", "result": 10, "unit": "nM"}
    ]}
  ]
}
